Reference: patent US20140128287

Target: GEV (Gal4 DBD - estrogen receptor - VP16) (synthetic construct) (UniProt P04386)
Assay: cell_activity
Details: yeast reporter with three pairs of GEV sites, 15 min after beta-estradiol

Sequence of GEV (Gal4 DBD - estrogen receptor - VP16) (synthetic construct) (P04386 1-93): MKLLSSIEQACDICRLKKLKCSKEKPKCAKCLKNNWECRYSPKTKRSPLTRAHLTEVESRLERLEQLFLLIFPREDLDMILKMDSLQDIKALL

Sequence: CGGNNNNNNNNNNNCCG (double strand) [GAL1 promoter UASgal (Gal4 consensus site)]
- activity (fold induction of GFP transcripts): > 50
